According to paper PMC6131548:

Target: Tsr2 (in the ITC with yeast ESS2) (S. cerevisiae (yeast)) (UniProt Q06672)
Test: ITC; VP-ITC; 20–40 µM Tsr2 variant in the cell, 400–800 µM ESS2 peptide in the syringe; 25 °C, 20 mM NaPi pH 7.1, 1 mM DTT, 10 µM EDTA

With RPRFNRENKVSPADAAKKAL [ESS2 peptide] the Kd was 700 nM and the stoichiometry N was 1.
